Experimental data: patent US20240218057A1 (ROCKEFELLER UNIVERSITY, published 2024)
Changes are numbered by the printed parent chain.

B1: C921 (antibody, V domains shown)
VH: QLQLQESGPGLVKPSETLSLTCAVSGGSISNSPFYWAWIRQPPGKGLECIGSIYYTGSTYYNPSLKSRVTISVDTSTKQFSLKLRSVTAADTAVYYCARHFADGSGRVVDYWGQGTLVTVSS
VL: EIVLTQSPATLSLSPGERATLSCRASQSVTTYLAWYQQKPGQAPRLLIYDVSSRATGIPARFSGSGSGTDFTLTISSLEPEDFAVYYCQQRSNWPLYTFGQGTKLEIK
B2: C922 (antibody, V domains shown)
VH: QVQLVESGGGLVKPGGSLRLSCAGSGFTFTDYYMAWIRQAPGKGLEWVSYISTSDRFINYADSVKGRFTISRDDAKNSLYLQMNSLRAEDTAVYYCARDGGGYDRFDHWGQGTLVTVSS
VL: DIQMTQSPSSLSASVGDRVTITCQASQDISNLLNWYQQKAGKAPKLLIYDASNLETGVPSRFSGSGSGTDFTFTISSLQPEDIATYYCLQYDNLPLTFGQGTKLEIK
B3: C923 (antibody, V domains shown)
VH: QVQLVESGGGLVKPGGSLRLSCAASGFTFSDYHMTWIRQAPGKGLEWVSYISNRSTYRNYADSVKGRFTISRDNAKNSLYLQMNSLRAEDTAVYYCARDGGAYDRFDYWGQGTLVTVSS
VL: B2 VL with S30K, N31K, L32F, A40P, F71L, L89Q
B4: C931 (antibody, V domains shown)
VH: QVQLVESGGGVVQPGRSLRLSCAASGFSFSTYGMHWVRQAPGKGLEWVAVISFDGSQKYYGDSVKGRFTISRDNPKNTLDLQMNSLRAEDTAVYYCAKVVVRGVIISLYYGMDVWGQGTTVTVSS
VL: not shown
B5: C926 (antibody, V domains shown)
VH: QVQLVESGGGVVQPGRSLRLSCAASGFGLITYSMHWVRQAPGKGLEWVGLISFDGNTTYYADSVRGRFTISRDNLANILYLQMNSLRPDDTALYYCARDKRGVIRGLLNFWGQGSLVTVSS
VL: DIVMTQSPDSLAVSLGERATINCKSSQSLLPSSNSNNYLAWYQQKSGQPPNLLIYWASTRESGVPDRFSGSGSETDFSLTISNLQAEDVAVYYCQQYYNTPHTFGGGTKVEI
B6: C932 (antibody, V domains shown)
VH: QVQLVESGGSVVQPGKSLRLSCAGSGFAFSTYGMHWVRQAPGKGLEWVAVISSDGGNKYYADSVKGRFTISRDNYENTLYLQMNSLGAEDTAVYYCAKVALRGVFISLYYGMDVWGQGTTVTVSS
VL: SYELTQPPSVSVTPGQTASITCSGDKLGDKYACWFLQKPGQSPLLVIYQDTKRPSGIPDRLSGSKSGNTATLTISGTQAMDEADYYCQTWDSSAVVFGGGTKLTV
B7: C935 (antibody, V domains shown)
VH: QVQLVESGGGVVQPGRSLRLSCAATGFTFSSYGMHWVRQAPGKGLEWVALIWYDGSNQYYVDSVKGRFTISRDNSKKTLYLQMNSLRVEDTAVYYCARDFSNSDMVTLSDAFDIWGQGTMVTVSS
VL: DIQLTQSPSFLSASVGDRVTIACRASQGISSYSSYLAWYQQKPGKAPKLLIYAASTLQSGVPSRFSGSGSGTEFTLTISSLQPEDFATYYCQQLNSYPLFTFGPGTKVDIK
B8: C939 (antibody, V domains shown)
VH: QVQLVESGGGVVQPGRSLRLSCAASGFTFSSYAMHWVRQAPGKGLESVALISHDGSNKYHADSVKGRLTISRDTSKNTLYLQMDSLRPEDTAVYYCASGLLWFETAGGSGAPDYGMAVWGQGTTVTVSS
VL: DIQMTQSPSSLSASVGDRVTITCRASQSISTYLNWYQQKPGRAPKFLIYAASSLQSGVPSRFSGSGSGTDFTLIISGLQPEDFATYFCQQSYNTPLTFGGGTKVEIK
B9: C924 (antibody, V domains shown)
VH: QVQLVESGGGVVQPGRSLRLSCAASGFTFSSYGMHWVRQAPGKGLEWVAVISDDGSNKYYADSVKGRFTISRDNSKNTLYLQMNSLRAEDTAVYYCAKSWWLSENWFDPWGQGTLVTVSS
VL: EIVMTQSPATLSVSPGERATLSCRASQSVSSNLAWYQQKPGQAPRLLIYGASTRATGIPARFSGTGSGTEFTLTISSLQSEDFAVYYCQQYNNWPLTFGGGTKVEIK
B10: C925 (antibody, V domains shown)
VH: B9 VH with S31N, M34L, I51T, S56N, N57R, N74D, S85N, A88T
VL: B9 VL with S30R, K39R, S52F, G64V, T65S, S76D
B11: C927 (antibody, V domains shown)
VH: QVQLVESGGGVVQPGRSLRLSCVASGFTFSYFDMHWVRQAPGKGLEWVALISHDGSTTFYGDSARGRFTISRDNSRNTLDLQMNSLRPEDTAVYFCAKPVDAAMFDFWGQGTLVTVS
VL: SYELTQPPSVSVAPGKTARITCGGNNIGSKSVHWYQQRPGQAPVLVIYYDSDRPSGIPERFSGSNSGNTATLTISRVEAGDEADFYCQVWDRSTNHLVVFGGGTQLTVL
B12: C929 (antibody, V domains shown)
VH: EVQLVESGGGLIQPGGSLRLSCAASGFTVSSNYMTWVRQAPGKGLEWVSVIYSGGTTYYADSVKGRFTISRDNSKNTLYLQMNSLRAEDTAVYYCARDLVVWGMDVWGQGTTVTVSS
VL: DIQLTQSPSFLSASVGDRVTITCRASQGISSYLAWYQQKPGKAPKLLIYAASTLQSGVPSRFSGSGSGTEFTLTISSLQPEDFATYYCQLLNSYPYTFGQGTKLEIK
B13: C936 (antibody, V domains shown)
VH: B12 VH with T35S, T56S, Y58F, V100G, V101T, W102G, G103L, M104F, V106Y, T112L
VL: DIQLTQSPSFLSASVGDRVTITCRASQGISSYLAWYQQKPGKAPKLLIYAASTLQSGVPSRFSGSGSGTEFTLTISSLQPEDFATYYCQQLDSYPPGTFGPGTKVDIK
B14: C937 (antibody, V domains shown)
VH: EVQLVESGGGLIQPGGSLRLSCAASELTVSSNYMSWVRQAPGKGLEWVSVIYPGGSTFYADSVKGRFTISRDNSKNTLYLQMNSLRAEDTAVYYCARDLGTGLFDYWGQGTLVTVSS
VL: B13 VL with Y87F, Q90L, D92N, Y94N
B15: C930 (antibody, V domains shown)
VH: B12 VH with I12F, S21A, F27I, T35S, A40P, S53A, T56S, Y58F, F67L, M82I
VL: B12 VL with L90Q, S93T
B16: C928 (antibody, V domains shown)
VH: QVQLVESGGGVVQPGRSLRLSCAASGFTFSFFDMHWVRQAPGKGLEWVADISYDGSNQYYGDSVKGRFTISRDNSKSTLYLQMNSLRAEDTAVYYCAKPVDTAMFDSWGQGTLVTVSS
VL: SYELTQPPSVSVAPGETARITCGGNNIGHKSVHWYQQQPGQAPVLVIYYDSERPSGIPERFSGSNSGNTATLTISRVEAGDEADYHCQVWDGGNDHLVIFGGGTKLTVL
B17: C938 (antibody, V domains shown)
VH: QVQLVESGGGVVQPGRSLRLSCAASGFTFRSHAMHWVRQAPGKGLEWVAIISSDGFNKYYADSVKGRFTISRDNSKNTLYVHMNSLRVEDTAIYYCASGLLWFETREISGAPDYGMAVWGQGATVTVSS
VL: DIQMTQSPSSLSASVGDRVTITCRASQNISNFLNWYQQKPGKAPKLLIYAASSLQSGVPSRYSGSGSGTDFTLTISSLQAEDFATYYCQQSYSTPLTFGGGTKVEIK
B18: C934 (antibody, V domains shown)
VH: QVQLVQSGAEVKKPGASVKVSCKASGYTFTDYYIHWVRQAPGQGLEWMGWINPNSGGTNYAQKFQGRVTMTRDTSISTAYMDLSRLRSDDTAVYYCARDVIITMGRGVVFRMDVWGQGTTVTVSS
VL: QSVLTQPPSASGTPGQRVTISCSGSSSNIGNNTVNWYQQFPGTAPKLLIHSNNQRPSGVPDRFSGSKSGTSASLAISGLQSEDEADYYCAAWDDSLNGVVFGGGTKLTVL

Target: T1, SARS-COV-2 RBD (SARS-COV-2, UniProt P0DTC2 319-539)
T1 construct: also called WT RBD
Experiment: ELISA, RBD coated on plate

| Binder | EC50 [ng/mL] |
| --- | --- |
| B1 | 3.91 |
| B2 | 2.42 |
| B3 | 1.95 |
| B4 | 2.57 |
| B5 | 4.72 |
| B6 | 3.57 |
| B7 | 2.86 |
| B8 | 3.62 |
| B9 | 2.5 |
| B10 | 2.26 |
| B11 | 3.77 |
| B12 | 2.07 |
| B13 | 1.56 |
| B14 | 0.97 |
| B15 | 1.24 |
| B16 | 4.14 |
| B17 | 2.63 |
| B18 | 0.95 |
